What follows are substances tested against recombinant SARS-CoV-2 S1 protein expressed from insect (Sf9) cells (S1-His, SinoBiological, Cat. No. 40591-V08B1) (SARS-CoV-2) (UniProt P0DTC2) (assay: not given).
Maclura pomifera lectin (MPA), sequence (P18674 whole entry): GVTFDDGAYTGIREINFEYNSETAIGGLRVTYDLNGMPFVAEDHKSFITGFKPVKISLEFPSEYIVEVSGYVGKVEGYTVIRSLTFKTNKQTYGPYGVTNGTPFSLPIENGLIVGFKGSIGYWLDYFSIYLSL
Maclura pomifera lectin (MPA), sequence (P18676 whole entry, further chain): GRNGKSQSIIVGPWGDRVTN
Peanut Agglutinin (PNA), lectin from Arachis hypogaea, sequence (P02872 24-259 limits assumed): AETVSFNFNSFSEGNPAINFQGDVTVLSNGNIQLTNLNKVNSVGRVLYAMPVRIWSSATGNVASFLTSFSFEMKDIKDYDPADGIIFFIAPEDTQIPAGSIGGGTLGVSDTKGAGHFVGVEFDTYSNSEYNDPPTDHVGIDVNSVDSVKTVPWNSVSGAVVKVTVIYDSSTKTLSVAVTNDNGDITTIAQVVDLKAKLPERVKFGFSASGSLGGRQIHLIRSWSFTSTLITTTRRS
“SPM320 IgM anti-TF monoclonal antibody (Abnova, Cat. No. MAB13207)” was tested, and the mean fold increase of OD450 was 5.5 fold. In the case of “Tn218 IgM anti-Tn monoclonal antibody (Abnova, Cat. No. MAB6198)”, the mean fold increase of OD450 is reported as 1.77 fold. Substance mouse monoclonal IgG3 antibody JAA-F11 has a mean fold increase of OD450 of 3.32 fold.

These substances were tested against recombinant SARS-CoV-2 S1 protein expressed from insect (Sf9) cells (S1-His, SinoBiological, Cat. No. 40591-V08B1) (SARS-CoV-2) (UniProt P0DTC2) (assay: ELISA, coated insect-cell S1-His, HRP-conjugated lectin 10 ug/mL).
Work on Maclura pomifera lectin (MPA) yielded a mean fold increase of OD450 of 7.51 fold. Work on “Peanut Agglutinin (PNA), lectin from Arachis hypogaea (from UniProt P02872 24-259)” yielded a mean fold increase of OD450 of 22.7 fold. For Salvia sclarea lectin (SSA), the mean fold increase of OD450 was 3.97 fold.
